Experimental data taken from patent publication US20070212347A1 (published 2007).
Each block holds one molecule with its values, some of them ahead of it.

Assays:
[1] = target: GST-p53 construct (Res. 73-390) [GST: P08515]; experiment: in vitro binding, ^35S-T-antigen probe on bead-immobilized GST-p53
[2] = target: T1, ^35S-PKD2 probe (C-terminal region of polycystin-2, Res. 657-968) (UniProt Q13563 657-968, ^35S-labeled (in vitro translation)); experiment: in vitro binding, autoradiogram (FIG. 12C)
T1 construct: range 657-968; In vitro translated in the same manner as the Ig probes; also called polycystin-2 probe; PKD2 gene product
T1 sequence (looked up): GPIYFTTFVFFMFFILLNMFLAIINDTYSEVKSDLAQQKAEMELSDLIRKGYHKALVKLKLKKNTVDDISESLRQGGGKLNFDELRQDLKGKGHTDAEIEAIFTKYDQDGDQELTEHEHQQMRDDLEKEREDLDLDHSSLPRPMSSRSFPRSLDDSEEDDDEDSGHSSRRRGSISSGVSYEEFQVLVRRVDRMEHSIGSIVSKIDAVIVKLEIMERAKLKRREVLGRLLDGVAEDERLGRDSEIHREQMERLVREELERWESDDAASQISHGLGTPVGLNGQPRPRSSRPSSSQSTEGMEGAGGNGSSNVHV

[3] = target: T2, GST-Ig^b fusion protein (polycystin-1 Ig-like domains VI-X, amino acids 1205-1625, fused to GST) (human, UniProt P98161 1205-1625); experiment: in vitro binding, ^35S in vitro translated probe on bead-immobilized GST fusion
T2 construct: used soluble in the MDCK adhesion assays; not shown: glutathione S-transferase carrier encoded by the pGEX vector (Pharmacia), N-terminal fusion partner; linker residues not
T2 sequence: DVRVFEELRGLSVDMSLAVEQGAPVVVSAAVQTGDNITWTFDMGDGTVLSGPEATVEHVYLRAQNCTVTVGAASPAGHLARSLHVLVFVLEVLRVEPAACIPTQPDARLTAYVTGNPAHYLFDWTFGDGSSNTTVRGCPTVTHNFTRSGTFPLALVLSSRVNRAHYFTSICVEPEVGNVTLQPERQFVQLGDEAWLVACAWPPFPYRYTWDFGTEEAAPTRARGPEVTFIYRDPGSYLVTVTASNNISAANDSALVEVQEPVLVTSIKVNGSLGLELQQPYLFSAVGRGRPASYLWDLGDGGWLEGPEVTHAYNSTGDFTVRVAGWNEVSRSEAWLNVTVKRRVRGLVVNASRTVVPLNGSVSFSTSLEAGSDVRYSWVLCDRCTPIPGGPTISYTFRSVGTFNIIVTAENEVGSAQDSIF

[4] = target: Ig^b and Ig^c, as partners of Ig^b in the 'Ig^b-Ig^b, Ig^b-Ig^c combinations'; experiment: in vitro binding, ^35S in vitro translated probe on bead-immobilized GST fusion, PhosphorImager

GST-p53 construct (Res. 73-390) [GST: P08515], sequence (P08515 whole entry): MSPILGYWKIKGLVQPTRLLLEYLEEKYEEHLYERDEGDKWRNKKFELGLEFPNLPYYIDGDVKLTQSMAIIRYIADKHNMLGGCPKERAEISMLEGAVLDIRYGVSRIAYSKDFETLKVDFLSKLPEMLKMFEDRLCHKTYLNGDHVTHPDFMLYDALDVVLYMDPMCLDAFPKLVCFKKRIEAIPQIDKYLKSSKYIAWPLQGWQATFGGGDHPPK

Molecule: ^35S-T-antigen probe (SV40 large T-antigen, res. 87-708) (from UniProt P03070 87-708)
bound fraction (percentage of input probe) [1]: 45%

binding result [2]: binds
B1: MBP-PKD1 fusion protein (C-terminal region of polycystin-1, Res. 4077-4302, fused to MBP) (other, not shown: large carriers)
chain: ESWHLSPLLCVGLWALRLWGALRLGAVILRWRYHALRGELYRPAWEPQDYEMVELFLRRLRLWMGLSKVKEFRHKVRFEGMEPLPSRSSRGSKVSPDVPPPSAGSDASHPSTSSSQLDGLSVSLGRLGTRCEPEPSRLQAVFEALLTQFDRLNQATEDVYQLEQQLHSLQGRRSSRAPAGSSRGPSPGLRPALPSRLARASRGVDLATGPSRTPLRAKNKVHPSST
notes: Immobilized on amylose resin; also called polycystin-1 c-terminal fusion protein

binding result [3]: binds
bound fraction (percentage of input probe) [4]: 25 to 45%
B2: ^35S-Ig^b in vitro translated probe (polycystin-1 Ig-like domains VI-X) (other)
chain: T2 sequence
modifications: ^35S-labeled (in vitro translation)
notes: Translated in reticulocyte lysate without the GST portion, from an AUG in a Kozak context placed upstream of the insert
